Laboratory results reported in patent US20220348664A1.

Columns and labels:
[1] = molecular target: human PD-L1 ECD with mouse Fc tag (W315-hPro1.ECD.mFc) (human) (UniProt Q9NZQ7); assay: ELISA, plate coated with human PD-L1 ECD-mFc, HRP anti-human IgG detection
[2] = molecular target: human PD-L1, full length, on CHO-K1 cells (W315-CHO-K1.hPro1.C11) (human) (UniProt Q9NZQ7); assay: FACS on human PD-L1-expressing CHO-K1 cells, PE anti-human IgG detection
[3] = molecular target: mouse PD-L1 ECD with mouse Fc tag (W315-mPro1.ECD.mFc) (mouse) (UniProt Q9EP73); assay: ELISA, plate coated with mouse PD-L1 ECD-mFc, HRP anti-human IgG detection
Sequence of mouse PD-L1 ECD with mouse Fc tag (W315-mPro1.ECD.mFc) (mouse) (Q9EP73 19-239): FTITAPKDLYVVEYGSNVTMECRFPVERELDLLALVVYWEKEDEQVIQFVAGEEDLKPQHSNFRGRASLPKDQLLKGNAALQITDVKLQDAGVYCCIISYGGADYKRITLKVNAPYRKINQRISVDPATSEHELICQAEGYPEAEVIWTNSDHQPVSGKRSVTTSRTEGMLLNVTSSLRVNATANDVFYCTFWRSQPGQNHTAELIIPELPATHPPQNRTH

[4] = molecular target: mouse PD-L1 protein (SPR analyte) (mouse) (UniProt Q9EP73); assay: SPR (Biacore 8K), antibody captured on anti-human IgG Fc chip, antigen as analyte, 1:1 fit
Sequence of mouse PD-L1 protein (SPR analyte) (mouse) (Q9EP73 19-239 limits assumed): as the sequence (Q9EP73 19-239) above

[5] = molecular target: cyno PD-L1 protein (SPR analyte) (cynomolgus) (UniProt G7PSE7); assay: as above
Sequence of cyno PD-L1 protein (SPR analyte) (cynomolgus) (G7PSE7 entry or part of it): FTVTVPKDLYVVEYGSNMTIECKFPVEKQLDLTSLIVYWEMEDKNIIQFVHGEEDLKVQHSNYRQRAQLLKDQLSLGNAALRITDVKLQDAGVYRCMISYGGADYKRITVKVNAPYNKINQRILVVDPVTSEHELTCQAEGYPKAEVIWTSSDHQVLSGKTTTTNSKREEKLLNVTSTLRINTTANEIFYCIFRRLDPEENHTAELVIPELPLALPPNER

[6] = molecular target: human PD-L1 protein (SPR analyte) (human) (UniProt Q9NZQ7); assay: as above
Sequence of human PD-L1 protein (SPR analyte) (human) (Q9NZQ7 19-238 limits assumed): as the sequence (G7PSE7 entry or part of it) above, with T33A, S34A, N62S, Q68R, R82Q, L173F, A185T, I192T, L215H counted along it

[7] = molecular target: cynomolgus PD-L1 ECD with His tag (W315-cynoPro1.ECD.His) (cynomolgus) (UniProt G7PSE7); assay: ELISA, plate coated with cynomolgus PD-L1 ECD-His, HRP anti-human IgG detection
Sequence of cynomolgus PD-L1 ECD with His tag (W315-cynoPro1.ECD.His) (cynomolgus) (G7PSE7 entry or part of it): as the sequence (G7PSE7 entry or part of it) above

[8] = molecular target: human LAG-3 ECD with mouse Fc tag (W339-hPro1.ECD.mFc) (human) (UniProt P18627); assay: FACS competition: antibody pre-incubated with mFc-tagged LAG-3, binding of LAG-3 to MHC-II on Raji cells detected with anti-mouse IgG Fc-PE; Top is the upper plateau of the LAG-3 signal
Sequence of human LAG-3 ECD with mouse Fc tag (W339-hPro1.ECD.mFc) (human) (P18627 23-450): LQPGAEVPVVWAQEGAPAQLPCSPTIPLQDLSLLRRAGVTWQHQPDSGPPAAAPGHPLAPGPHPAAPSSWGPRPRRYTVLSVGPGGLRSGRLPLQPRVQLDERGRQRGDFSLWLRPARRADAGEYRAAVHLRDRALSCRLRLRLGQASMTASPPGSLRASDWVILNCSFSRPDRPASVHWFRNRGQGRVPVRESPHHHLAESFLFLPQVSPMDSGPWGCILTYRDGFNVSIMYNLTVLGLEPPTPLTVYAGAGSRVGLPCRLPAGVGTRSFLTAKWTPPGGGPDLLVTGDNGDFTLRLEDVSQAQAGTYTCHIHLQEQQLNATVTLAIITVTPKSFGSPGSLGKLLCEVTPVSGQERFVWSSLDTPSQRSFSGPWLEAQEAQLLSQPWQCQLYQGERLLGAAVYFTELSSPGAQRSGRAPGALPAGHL

[9] = molecular target: human LAG-3, full length, on cells (W339-FlpIn293.hPro1.A3) (human) (UniProt P18627); assay: FACS on human LAG-3-expressing 293 cells, PE anti-human IgG detection
Sequence of human LAG-3, full length, on cells (W339-FlpIn293.hPro1.A3) (human) (P18627 23-525): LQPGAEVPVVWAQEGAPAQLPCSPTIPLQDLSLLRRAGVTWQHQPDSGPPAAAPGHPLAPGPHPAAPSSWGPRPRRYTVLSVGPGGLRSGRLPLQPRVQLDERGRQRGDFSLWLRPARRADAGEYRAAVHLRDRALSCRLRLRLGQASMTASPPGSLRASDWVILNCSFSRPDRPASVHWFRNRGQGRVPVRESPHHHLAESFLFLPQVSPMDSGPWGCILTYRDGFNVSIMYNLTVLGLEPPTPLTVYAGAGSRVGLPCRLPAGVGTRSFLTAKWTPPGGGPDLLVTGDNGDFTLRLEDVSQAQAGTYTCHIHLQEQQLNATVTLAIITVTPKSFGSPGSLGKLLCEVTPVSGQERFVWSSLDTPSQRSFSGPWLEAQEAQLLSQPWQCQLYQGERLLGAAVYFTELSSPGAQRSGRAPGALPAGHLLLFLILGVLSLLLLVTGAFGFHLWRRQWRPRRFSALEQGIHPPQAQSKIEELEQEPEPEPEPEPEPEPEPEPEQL

[10] = molecular target: human LAG-3 ECD with mouse Fc tag (W339-hPro1.ECD.mFc) (human) (UniProt P18627); assay: FACS competition, blocking of mFc-tagged LAG-3 binding to MHC-II on Raji cells (competitor MHC-II)
[11] = molecular target: human LAG-3 ECD with mouse Fc tag (W339-hPro1.ECD.mFc) (human) (UniProt P18627); assay: ELISA competition, blocking of mouse Fc-tagged LAG-3 binding to coated human FGL-1 (competitor FGL-1)
[12] = molecular target: human LAG-3 protein (SPR analyte) (human) (UniProt P18627); assay: SPR (Biacore 8K), antibody captured on anti-human IgG Fc chip, antigen as analyte, 1:1 fit
Sequence of human LAG-3 protein (SPR analyte) (human) (P18627 23-450 limits assumed): as the sequence (P18627 23-450) above

[13] = molecular target: cynomolgus LAG-3 protein (Sino-90841-C08H) (cynomolgus); assay: ELISA, cynomolgus LAG-3-His captured by coated anti-His, HRP anti-human IgG detection
[14] = molecular target: human LAG-3 ECD with mouse Fc tag (W339-hPro1.ECD.mFc) (human) (UniProt P18627); assay: ELISA, human LAG-3 ECD-mFc captured by coated goat anti-mouse F(ab)2, HRP anti-human IgG detection

Sequence of human PD-L1 ECD with mouse Fc tag (W315-hPro1.ECD.mFc) (human) (Q9NZQ7 19-238): as the sequence (G7PSE7 entry or part of it) above, with T33A, S34A, N62S, Q68R, R82Q, L173F, A185T, I192T, L215H counted along it
Sequence of human PD-L1, full length, on CHO-K1 cells (W315-CHO-K1.hPro1.C11) (human) (Q9NZQ7 19-290): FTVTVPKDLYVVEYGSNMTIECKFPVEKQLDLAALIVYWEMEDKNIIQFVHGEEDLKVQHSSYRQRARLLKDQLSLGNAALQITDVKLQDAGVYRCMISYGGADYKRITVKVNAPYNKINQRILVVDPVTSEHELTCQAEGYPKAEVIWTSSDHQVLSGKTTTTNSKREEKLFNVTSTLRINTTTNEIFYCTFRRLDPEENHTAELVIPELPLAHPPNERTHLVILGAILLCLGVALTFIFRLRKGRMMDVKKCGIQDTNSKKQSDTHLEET

Row | EC50 [1] [nM] | Top [1] [OD450-OD540] | EC50 [2] [nM] | Top [2] [MFI] | EC50 [3] [nM] | Kd [4] [nM] | Kd [5] [nM] | Kd [6] [nM] | EC50 [7] [nM] | Top [7] [OD450-OD540] | Top [8] [MFI] | EC50 [9] [nM] | Top [9] [MFI] | IC50 [10] [nM] | IC50 [11] [nM] | Kd [12] [nM] | koff [12] [s⁻¹] | kon [12] [M⁻¹ s⁻¹] | EC50 [13] [nM] | EC50 [14] [nM] | Substance
1 | 0.035 | 2.45 | 0.208 | 8790 | 0.04 | 2.31 | 6.29 | 0.0794 | 0.053 | 1.98 | – | – | – | – | – | – | – | – | – | – | WBP315-BMK8 (Atezolizumab) (antibody)
2 | – | – | – | – | – | – | – | – | – | – | 2910 | 0.237 | 1180 | 1.88 | 6.37 | 0.62 | 0.000315 | 508000 | 3.79 | 0.22 | WBP339-BMK1 (25F7) (antibody)
